The values below are quoted from earlier work in article PMC8441013.

This data set concerns the target neuromedin B (Homo sapiens) (UniProt P08949).
Chain of UniProt P08949 (P08949 whole entry, looked up): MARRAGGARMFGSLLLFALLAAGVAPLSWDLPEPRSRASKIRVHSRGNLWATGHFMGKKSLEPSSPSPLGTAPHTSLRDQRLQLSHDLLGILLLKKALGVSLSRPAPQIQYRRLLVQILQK

For NMBR (from UniProt P28336), the Kd is 5 nM.

What is called Kd is the free concentration of one partner at which half of the binding sites on the other are occupied at equilibrium, for simple one-to-one binding.
